Measured values reported in the DeepSol protein solubility set.

test: soluble on expression in E. coli; label from the status in PepcDB or PDB records

Sequence	soluble on expression in E. coli
MDLSALREDFPLFAQRPELVYLDSAATSQKPRRVIEALRRYYETLNANVHRGAYRLSAEATEAYEEARRRLARFLNAEPKEIVFVRNTTEAMNLVAYAWGLRNLKEGDEVLVTEMEHHAGLVPWHLVAGLTGAKVKAIPLTEEGRLDLSALEDLLTERTRVVSLVHMSNVLGTINPVAEIARRAKEAGALVVVDGAQSAPHLPVDVKALGADFFALSGHKMLGPTGAGVLWGRYEVLEGMMPFLGGGEMILEVHVDRSTYAPPPQRFEAGTPPIAEAIALGEAACYLMEVGMEKVFAHDRALLDYALKRLEEVPRLRVYGPKGLDRGGVIPFTLGRLHAHDLATFLDQEGIAVRAGHHCAQPLHRKLGLAATARASFYLYNTKEEVDRFVEALLRIEAKYRAWL	soluble
MGSSHHHHHHSSGLVPRGSHMKWDYDLRCGEYTLNLNEKTLIMGILNVTPDSFSDGGSYNEVDAAVRHAKEMRDEGAHIIDIGGESTRPGFAKVSVEEEIKRVVPMIQAVSKEVKLPISIDTYKAEVAKQAIEAGAHIINDIWGAKAEPKIAEVAAHYDVPIILMHNRDNMNYRNLMADMIADLYDSIKIAKDAGVRDENIILDPGIGFAKTPEQNLEAMRNLEQLNVLGYPVLLGTSRKSFIGHVLDLPVEERLEGTGATVCLGIEKGCEFVRVHDVKEMSRMAKMMDAMIGKGVK	soluble
MKKLLFAIDDTEACERAAQYILDMFGKDADCTLTLIHVKPEFMLYGEAVLAAYDEIEMKEEEKAKLLTQKFSTFFTEKGINPFVVIKEGEPVEMVLEEAKDYNLLIIGSSENSFLNKIFASHQDDFIQKAPIPVLIVK	soluble
MGSDKIHHHHHHMESITLTADLDALAKTSAFITAAAERCGLDERATWQVQLAVDEAVTNVIQHAYDPDQPGDFTLSWQCHDQRFIVTVRDHGRQFDPSTVPVPDITSPLEERQVGGLGIYLITRLMDEVHFEFSPQGGNLLTMVKYLPSDQAEEANEVVVIPINDRIDALTAPRLSKTVNEQISQGARQIVLDFSNVPFLSSSGLRALLLIRKELMTLGGELRLAALQPQVHEVFTITGFTQVFNIHPSVTEARAAFSQRR	not soluble
SPNPPKLTKQMNAIIDTVINYKDSSGRQLSEVFIQLPSRKELPEYYELIRKPVDFKKIKERIRNHKYRSLGDLEKDVMLLCHNAQTFNLEGSQIYEDSIVLQSVFKSARQ	soluble
MVRLIHTLADHGDDVSCCAFSAALLATCSLDKTIRLYSLSDFAELPYSPLKFHTYAVHCCCFSPSGHVLASCSTDGTTVLWSSHSGHTLTVLEQPGGSPVRVCCFSPDSAYLASGAADGSIALWNAQTYKLYRCGSVKDSSLVACAFSPDGGLFVTGSSGGDLTVWDDRMRCLHSEKAHDLGITCCSFSSQPLSGGEGLQSYQLASCGQDCEIKLWAVTITRVLGFELKYKSTLSGHCAPVLACAFSHDGKMLASGSVDKSVIIHGIGPQSVLHTLTQHTRYVTTCAFAPNTLLLATGSMDKTVNIWQFDLETPCQGSMNDPLKHFTEEWSEEDVSVWLRAQGLEDLVGIFRANNIDGKELLHLTKESLAGDLKIESLGLRSKVLRSIEELRAKMDSLSSGIPDEFICPITRELMKDPVIASDGYSYEREAMESWIHKKKRTSPMTNLALPSLVLTPNRTLKMAINRWLETHEK	soluble
MSLINLWPLLLPAAAWSGWWLANRSNSNKDAHVHNRLSREYVVGLNYLLNEQSDKAVDVFIKLLEVDSDTVETHLALGSLFRRRGEVDRAIRIHQNLIARPQLSIQQRKEALMALGQDYMSAGVFDRAERIFLEVVELGGSRDTSSLQGLLAIYQQEKAWEKALDIIKKLEISTGASFHNQAAHYYCEMASQALKINAMDRAIYCIKQAMNVDPESVRASLMNATIEIKEGRYKQAIRSLKRVPQQDAEFLTEIIEPLVLCHKELDSMPDCIHYLEQTLEKHPRASVIFVIADYLRQNKGMDIAIDFVADNLSKHPSIRGLNRLIYWHLESAHGKVREKLQMLYDITSKFLDNKPIYRCGHCGFGGKHLHWHCPSCKQWGRMKPIHGLEGDEGHHHHHH	not soluble
MREFSRPKVVISRCLEFDHCRYNGDMISSPVVVKLKKHVDFLPVCPEVEIGLGVPRNPVRIVLDKGDHRLVQPSSGKDVTEDMKSFCSNFLDSIYEVDGFILKFRSPSCGLKDVKVYPSAGSHGGAVEKISGYFGGAVLGRYPFHPVEDEGRLRNARIKEHFLTKLFTFAAFRKVKSEGSIKDLINFHAQNKFLLMAYNQAELQKLGEIAANREKRPWKELISDYENHLYSALSRAPRYTSTINVLMHALGFFSDQLSSREKALFFDWVQKYREGRASVCPAINMIRSWIVRFEDGYLMSQTFFEPYPEDLIEINPVESHLREDLWK	not soluble
MVDIPAGEWQTDACPGWKEGRVCPPEKYLRQTLQIAPFQLSATAVTFAQWDACVDDGGCQEPDTGWAYQTRPNQPPCQAGSPCNYPYDEGWGRGDRPVIHVSWNDAQRYVDWLSQKTGQRYRLPTSEEWEYAAAAGSHARFAWGTKLGKNRGNCNGCGSRWDGKKTAPVASFAPNRFGLYDMVGNVSEWVSTCVPIRSKPGEDNQTCMAYLYRGGAWSYDAKSVGIDTYHSIDADFRANYIGFRVARLEHHHHHH	not soluble
MQLTPLQQAKPEKEEISPYAINNILSSTQSSPDNGNEADDKENSSVRRNTFPASSASTKKPRGTPYDRTNTPMTVVPQMPQFAPDFSNYNLTMNAWSEFFKKDRCMVCGDNSTGYHYGVQSCEGCKGFFRRSVHKNIAYVCTKGENCTFSYENCAANRGVRTRCQACRFAKCLAVGMNRDNVRVNKETDKDVKPSVASPNFEMTSQVKELTAAFVANMPCSTHLTSGTHAIGAIKKFIESVPALSSLLPKDEKALEMSIQKVMSGILAIRAAFTFDPITFYSCENPVNLLRGGIRNTVFNDCEVALLSGIHILQIVNGGVAEIFTSYCQGLRHQLSQTHLQEIGLCDRLLMRLGPYLNQ	not soluble
MTMTETMNVDLLLEMESVHVKPFTEHDKVILRSYEAVVDGIASLIGPFCEIVLHSLEDLNTSAIKIANGENTGRQVGSPITDMALKMLRDIEGSERNFSRSYFTRAKGGVLMKSITVAIRNGENRVIGLLCINVNLDAPFSQVLKSFMPTQEAQEAASSVNFASDVEELVDQTVERTIEEINGDKSVSNNTKNRQIVMALFDKGIFDIKDAINRVADRLNISKHTVYLYIRQRKTEDDEK	not soluble
MDQLQIKDLEMFAYHGLFPSEKELGQKFIVSAILSYDMTKAATDLDLTASVHYGELCQQWTTWFQETSEDLIETVAYKLVERTFESYPLVQEMKLELKKPWAPVHLSLDTCSVTIHRRKQRAFIALGSNMGDKQANLKQAIDKLRARGIHILKESSVLATEPWGGVEQDSFANQVVEVETWLPAQDLLETLLAIESELGRVREVHWGPRLIDLDLLFVEDQILYTDDLILPHPYIAERLFVLESLQEIAPHFIHPILKQPIRNLYDALKK	soluble
MGSDKIHHHHHHMAEVFHERLKSPIPTRELARRSRELQAVMKKENIDCILAQNITQYMGGCNRWLTDTTAENHYPQSSFLTKDGDIGYIACSGPPLDLYPPSHLLRIGKPWAAAPYFSVFNFTWDWEGRLFVKWVQENNVQKVGIAGMEMIMWNYYNYIAEKLPGVEIVDASSLFDEIRAVKSEDEIKFLEKSAALQDKVMGYLPALIQPGVREYEVRAKIMQLVTDHGGEEMIVIMGSAPRGEKFSLLPSFFQNRELQTGDELYVKLQCSGPGGLFTTVGRMFSIGCEPSGALEQGWREAAAAQEKLAGLLQVGADPQVIFGQYNAYLESKGYNQETGLFVYGQGYDHIERPSIQPGETMKLAKDMCLAANTSLISAERTVYCADSFILKPSGPQKLHRTPLTIFRT	not soluble
MTKIACVIVTYNRKQLLEEALNSVLIQTESPEYVFVIDNASTDGTEKYINDKFNFDNRQWHYVRCSQNLGGSAGFAQGMRLALQTDCSWISISDDDAIFEPGYFAALRKGIKQYPEQSVFSGSVLLPDGKHDMMHREVITNSATLTVRCVTDETYKHDFSYDIFSFVGILLSRQVIEAIGLPEQDYFIRFDDFEYAVRALKFGRFMNLSAAKVLHKTTYTRSALEHHHHHH	not soluble
MHEYSIVSALIEQCEQYAKANQATKVTRVEIKLGVMSGVEPALLQTAFETFKLDGICREAKLCMTLQPLVIKCADCQQESVLDERSIVCPACNSYHTRVLDGEEMLLMQLEMEQAEDA	soluble
VAEQKVKRNVELAGVDVILVHRMLKNEVPVSEYLFMTDVVAQCLDESVRKLATPLTHDFEGIGETSTHYIDLATSDMPPAVPDHSFFGLLWADVKFEWHALPYLLGFKKACAGFRSLGRGATEEPAEMG	not soluble
